Data published in patent publication US20090053213A1 (MorphoSys, published 2009).
Where a chain is given by its changes, count along the chain named. One block for each binder: values may come before it.

Assays:
[1] = target: T1, human GM-CSF (human, UniProt P04141 18-144); assay: cell-based or functional assay
[2] = target: T1, human GM-CSF; assay: solution equilibrium titration (SET, ECL/BioVeris), Fab with human GM-CSF (Leucomax) in solution
[3] = target: T1, human GM-CSF; assay: SPR (Biacore), Fab over immobilized recombinant human GM-CSF (Peprotech), F1 chip; affinity estimated from off-rates
Method: A respective amount of HSA was immobilized on the reference flow cell. […] Fab was applied in concentration series of 6.3-200 nM at a flow rate of 20 μl/min.

[4] = target: T1, human GM-CSF; assay: FACS receptor inhibition assay: inhibition of binding of 0.5 µg/ml biotinylated GM-CSF to GM-CSF receptor alpha on CHO-GMRa#11 cells
Method: (§1) All stainings were performed in round bottom 96-well culture plates (Nalge Nunc) with 1-5×10⁵ cells per well. […] Cells were then washed once with 150 μl FACS buffer/well and taken up in 100 μl phycoerythrin-labeled streptavidin (BD Biosciences Pharmingen) which has been diluted 1:400 in FACS buffer. […] IC₅₀ values were determined from the dose response curves obtained using GraphPad Prism v3.03 software applying a non-linear regression curve fit.
(§2) IC₅₀ values were determined from the dose response curves obtained using GraphPad Prism v3.03 software applying a non-linear regression curve fit.

[5] = target: T1, human GM-CSF; assay: FACS receptor inhibition assay: antibody pre-incubated with 0.5 µg/ml biotinylated GM-CSF, binding to GM-CSF receptor alpha on CHO-GMRa#11 cells
Method: as §1, §2

[6] = target: T1, human GM-CSF; assay: cell-based or functional assay; remark: listed apart in the source
[7] = target: T1, human GM-CSF; assay: cell-based or functional assay; remark: listed apart in the source

T1 sequence (P04141 18-144): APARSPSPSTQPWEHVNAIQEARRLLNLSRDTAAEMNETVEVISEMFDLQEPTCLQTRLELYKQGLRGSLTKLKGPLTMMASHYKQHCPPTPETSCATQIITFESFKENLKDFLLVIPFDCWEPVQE

IC50 (pM) in TF-1 proliferation assay, human GM-CSF 0.25 ng/ml [1]: 463 pM
IC50 x-fold improved compared to BVD2-21C11, TF-1 proliferation assay [1]: 14.2 fold
IC50 x-fold improved compared to Mab215, TF-1 proliferation assay [1]: 9.3 fold
Kd [2]: 7.4 pM
Kd [3]: 70 pM
% inhibition at 5 µg/ml antibody [4]: ~100%
IC50 [5]: 53000 pM
B1: MOR04251 Fab (Fab, V domains shown)
VH: QVQLVESGGGLVQPGGSLRLSCAASGFTFSSHWMSWVRQAPGKGLEWVSNIWRGPYIYYADSVKGRFTISRDNSKNTLYLQMNSLRAEDTAVYYCARFQGYGGGFDYWGQGTLVTVSS
VL: DIELTQPPSVSVAPGQTARISCSGDNLPGKYVHWYQQKPGQAPVLVIYYDSNRPSGIPERFSGSNSGNTATLTISGTQAEDEADYYCQSRTQTTIVFGGGTKLTVLG

IC50 (pM) in TF-1 proliferation assay, human GM-CSF [6]: 17300 pM
Kd [2]: 113 pM
B2: MOR04283 Fab (Fab, V domains shown)
VH: QVQLVQSGAEVKKPGSSVKVSCKASGGTFNSFLISWVRQAPGQGLEWMGAISPWDGVTGYAQKFQGRVTITADESTSTAYMELSSLRSEDTAVYYCARKFISDSWGQGTLVTVSS
VL: DIQMTQSPSSLSASVGDRVTITCRASQTINNYLNWYQQKPGKAPKLLIYTASNLQSGVPSRFSGSGSGTDFTLTISSLQPEDFAVYYCQQYSGSPMTFGQGTKVEIKR
notes: Fab with FLAG and 6xHis tags

IC50 (pM) in TF-1 proliferation assay, human GM-CSF [6]: 14000 pM
Kd [2]: 49.2 pM
B3: MOR04297 Fab (Fab, V domains shown)
VH: B2 VH with A50G, S52I, W54I, D55F, V57T, T58A, G59N
VL: B2 VL with V85T, G93W, S94V, M96H
notes: Fab with FLAG and 6xHis tags

IC50 (pM) in TF-1 proliferation assay, human GM-CSF [6]: 80 pM
Kd [2]: 4.9 pM
B4: MOR04342 Fab (Fab, V domains shown)
VH: B2 VH
VL: B2 VL with V85T, G93W, S94V, M96H
notes: X-cloned Fab (VH of MOR04283 x VL of MOR04297) with FLAG and 6xHis tags

IC50 (pM) in TF-1 proliferation assay, human GM-CSF 0.25 ng/ml [1]: 2010 pM
IC50 x-fold improved compared to BVD2-21C11, TF-1 proliferation assay [1]: 3.2 fold
IC50 x-fold improved compared to Mab215, TF-1 proliferation assay [1]: 2.1 fold
Kd [2]: 6 pM
Kd [3]: 55 pM
% inhibition at 5 µg/ml antibody [4]: ~75%
IC50 [5]: 26000 pM
B5: MOR04252 Fab (Fab, V domains shown)
VH: QVQLVESGGGLVQPGGSLRLSCAASGFTFSSYWMNWVRQAPGKGLEWVSGIENKYAGGATYYAASVKGRFTISRDNSKNTLYLQMNSLRAEDTAVYYCARGFGTDFWGQGTLVTVSS
VL: DIELTQPPSVSVAPGQTARISCSGDSIGKKYAYWYQQKPGQAPVLVIYKKRPSGIPERFSGSNSGNTATLTISGTQAEDEADYYCSSWDSTGLVFGGGTKLTVLG
notes: Fab with FLAG and 6xHis tags

IC50 (pM) in TF-1 proliferation assay, human GM-CSF 0.25 ng/ml [1]: 10700 pM
Kd [2]: 63.5 pM
Kd [3]: 174 pM
% inhibition at 5 µg/ml antibody [4]: ~75%
IC50 [5]: 24000 pM
B6: MOR04302 Fab (Fab, V domains shown)
VH: QVQLVESGGGLVQPGGSLRLSCAASGFTFSSYWMNWVRQAPGKGLEWVSGISYSGSETYYADSVKGRFTISRDNSKNTLYLQMNSLRAEDTAVYYCARGFGTDFWGQGTLVTVSS
VL: B5 VL with S87A, D89G, S90D, T91K, L93M
notes: Fab with FLAG and 6xHis tags

fold improvement of IC50 in TF-1 proliferation assay compared to parental MOR03929 [7]: > 2000 fold
IC50 (pM) in TF-1 proliferation assay, human GM-CSF 0.25 ng/ml [1]: 56 pM
IC50 x-fold improved compared to BVD2-21C11, TF-1 proliferation assay [1]: 117 fold
IC50 x-fold improved compared to Mab215, TF-1 proliferation assay [1]: 77.1 fold
Kd [2]: 2.8 pM
Kd [3]: 21 pM
% inhibition at 5 µg/ml antibody [4]: ~75%
IC50 [5]: 26000 pM
B7: MOR04354 Fab (Fab, V domains shown)
VH: B5 VH with N53S, Y55W, S65G
VL: B5 VL with S87A, D89G, S90D, T91K, L93M
notes: X-cloned Fab (VH of MOR04290 x VL of MOR04302) with FLAG and 6xHis tags

fold improvement of IC50 in TF-1 proliferation assay compared to parental MOR03929 [7]: > 2000 fold
IC50 (pM) in TF-1 proliferation assay, human GM-CSF 0.25 ng/ml [1]: 82 pM
IC50 x-fold improved compared to BVD2-21C11, TF-1 proliferation assay [1]: 80 fold
IC50 x-fold improved compared to Mab215, TF-1 proliferation assay [1]: 52.6 fold
Kd [2]: 1.1 pM
Kd [3]: 19 pM
% inhibition at 5 µg/ml antibody [4]: ~75%
IC50 [5]: 24000 pM
B8: MOR04350 Fab (Fab, V domains shown)
VH: B5 VH with Y55R, Y61F
VL: B5 VL with S87A, D89G, S90D, T91K, L93M
notes: X-cloned Fab (VH of MOR04287 x VL of MOR04302) with FLAG and 6xHis tags

IC50 (pM) in TF-1 proliferation assay, human GM-CSF 0.25 ng/ml [1]: 696 pM
IC50 x-fold improved compared to BVD2-21C11, TF-1 proliferation assay [1]: 9.4 fold
IC50 x-fold improved compared to Mab215, TF-1 proliferation assay [1]: 6.2 fold
Kd [2]: 11.1 pM
Kd [3]: 122 pM
% inhibition at 5 µg/ml antibody [4]: ~75%
IC50 [5]: 27000 pM
B9: MOR04290 Fab (Fab, V domains shown)
VH: B5 VH with N53S, Y55W, S65G
VL: B5 VL
notes: Fab with FLAG and 6xHis tags

IC50 (pM) in TF-1 proliferation assay, human GM-CSF 0.25 ng/ml [1]: 3380 pM
IC50 x-fold improved compared to BVD2-21C11, TF-1 proliferation assay [1]: 1.9 fold
IC50 x-fold improved compared to Mab215, TF-1 proliferation assay [1]: 1.3 fold
Kd [2]: 17.9 pM
% inhibition at 5 µg/ml antibody [4]: ~75%
IC50 [5]: 25000 pM
B10: MOR04287 Fab (Fab, V domains shown)
VH: B5 VH with Y55R, Y61F
VL: B5 VL
notes: Fab with FLAG and 6xHis tags
